Measured values taken from the supplement of paper PMC9170038.

Tests used:
MS2 coat protein [1] = test: apparent KD of MS2 coat protein; higher = weaker reporter binding; conditions: Eterna round: R101
Experimental: (§1)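 RNA-MaP: designed FMN/MS2 RNA switches (84 nt design region) are transcribed on-chip within common flanks and titrated with SNAP-549-labelled MS2 coat protein (about 1-3000 nM) in 100 mM Tris pH 7.5, 80 mM KCl, 4 mM MgCl2, without or with 200 uM FMN. Median apparent KD per design; activation ratio = KD,OFF / KD,ON.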

MS2 coat protein [2] = test: apparent KD of MS2 coat protein; designed switch direction (-1 OFF switch, 1 ON switch): -1; higher = weaker reporter binding; conditions: Eterna round: R98
Experimental: as §1

MS2 coat protein [3] = test: apparent KD of MS2 coat protein; designed switch direction (-1 OFF switch, 1 ON switch): 1; higher = weaker reporter binding; conditions: Eterna round: R98
Experimental: as §1

Sequence | apparent KD of MS2 coat protein (MS2 coat protein [1]; input ligand: FMN 200 uM) [µM] | apparent KD of MS2 coat protein (MS2 coat protein [1]; input ligand: none) [µM] | apparent KD of MS2 coat protein (MS2 coat protein [3]; input ligand: FMN 200 uM) [µM] | apparent KD of MS2 coat protein (MS2 coat protein [3]; input ligand: none) [µM] | further results
GGUCGACUUCAAGGAUAUGGACUGCUUUGCAGUCCAGAAGGUGAGGAUCACCCAUCUACGGUCAGGUUUCUGACCGAUCGACCU [#AddUracilToBrourdLoops 8 - Jieux - Exclusion NG1] (puzzle (switch architecture): Exclusion NG 1) | 0.102 | 0.0734 |  |  | 
AAAUAACUCGAAGGAUAUCAGGGUGCACCUCAGUAAAACUGAGGUGCACCCUGAGAAGGUCGAGGAUCACCCGACCUAAAUAAA [#SharedSequence SLExNG1: 5-2] (puzzle (switch architecture): Small Loop Exclusion NG 1) | 0.0198 | 0.00838 |  |  | 
UCGGCCCGGGAGAAGGACAUGAGGAUCACCCAUGUCGCCGGGCCCGGGAAACCGGGCCCGGCCAUGUAGGAUAUCCCGGGCCGA [#This is a good prank 2] (puzzle (switch architecture): Inverted Exclusion NG 2) | 0.00479 | 0.00459 |  |  | 
GAGGACUGUAAUAAUGUAGAAAUACAUGAGGAUCACCCAUGUAAGGAUAUCGUCAGGAAUACUGACGAGAAGGUACAUCAGUCC [Exclusion NG 3/10-A2] |  |  |  |  | apparent KD of MS2 coat protein (MS2 coat protein [2]; input ligand: FMN 200 uM): 0.0248 µM; apparent KD of MS2 coat protein (MS2 coat protein [2]; input ligand: none): 0.0173 µM
GUCACGAAUGUAGGAUAUCGAGUGGAAUACACUCGAGAAGGACAUGAGGAUCACCCAUGUAAAAUGAAAGAUAAUAAACGUGAC [Exclsuion NG 1/2-B1] |  |  |  |  | apparent KD of MS2 coat protein (MS2 coat protein [2]; input ligand: FMN 200 uM): 0.0517 µM; apparent KD of MS2 coat protein (MS2 coat protein [2]; input ligand: none): 0.018 µM
UAUAUAUAGGCAGGAUAUACAUGUAUAUAUAAUAUAUUAUAUAUUAUUACAUGAGGAUCACCCAUGUAGAAGGGCCAUAAUAUA [LRO035_Exclusion NG 2] |  |  |  |  | apparent KD of MS2 coat protein (MS2 coat protein [2]; input ligand: FMN 200 uM): 0.0527 µM; apparent KD of MS2 coat protein (MS2 coat protein [2]; input ligand: none): 0.03 µM
GGACAUGUCGUUUACAUGAGGAUCACCCAUGUCGAUGGACAUGAGGAUAUGGAUCCGAAUCGGAUCCAGAAGGCAUGCAUGUCC [SameState #7 NG3] |  |  | 0.0179 | 0.0452 | 
ACAGGUCGUGAGAAGGCGUGUGGCACCGUCGAAAGACGGUGCAAUUAAGAUCUUCGAGGAUCACCCGAGGAUAUCACGACCUGA [#SharedSequence - IExNG2: 18] (puzzle (switch architecture): Inverted Exclusion NG 2) | 0.0704 | 0.0186 |  |  | 
GGUCGUCACAUAUACAUGAGGAUCACCCAUGUCAAAAGACAUGAGGAUAUGGAUCCUAAUUGGAUCCAGAAGGCAUGGACGACC [#HiddenHairpinInALoop - Mat - Same State NG 3 - JL Mod - D11] (puzzle (switch architecture): Same State NG 3) | 0.0214 | 0.412 |  |  | 
GGUUUCAGGAUAGGAUAUGGCGUGACAUGGCGGCCAGAAGGAUCCUCGGGAACAUGAGGAUCACCCAUGUGACCGUGUCGAGUC [Biveedve] |  |  | 0.19 | 0.741 | 
UAGAAGUGGUGAGGAUAUGAAUACGGCUCAUUAUCCUACAUGAGGAUCACCCAUGUGGGUGGUCGUCAGAAGGCACUGCUAUCG [Edretirige] |  |  | 0.181 | 0.0323 | 
UGUCGGAGCAGAGGAUAUUACAUGAGGAUCACCCAUGUAUGAACCAAUAGCUGGAAACAGCAAUGUAAGAAGGCUGCUCCGACA (puzzle (switch architecture): Exclusion NG 2) | 0.177 | 0.0123 |  |  | 
UUAUUUUUACAGAAGGUUUAAUAAUAUAUAAGAGAAGGAUAUGUAACAUGAGGAUCACCCAUGUUUCACCCAUAUGAGGAUCAU [Astosinvert#10] (puzzle (switch architecture): Inverted Exclusion NG 1) | 0.00794 | 0.00828 |  |  | 
AAAUAAAAUAUAGGAUAUGGAAACAUGAGGAUCACCCAUGUAUGAUAAGAUAAAUAAUGAUAUAGCCAGAAGGAUAAAAUAUAA [LRO006_SS NG 2] |  |  | 0.0427 | 0.033 | 
UAGAUCACCGAAGGAUAUGGGCAGAGUCCCGCUACAUGAGGAUCACCCAUGUCAGUCGGUCGUUUUCAGAAGGUCGGAAUGAUU [Zadi] |  |  | 0.0571 | 0.0194 | 
AAAUAACUCGAAGGAUAUGACCCUCGAGGUGACUAAAAGUCACCUCGAGGGUCAGAAGGUCGAGGAUCACCCGACCUAAAUAAA [#SharedSequence SLExNG1: 5-1] (puzzle (switch architecture): Small Loop Exclusion NG 1) | 0.0368 | 0.0102 |  |  | 
AAAACAUGAGGAUCACCCAUGUAAAGAUCGGUUAAUAGAAGUGAGGAUAUGCUUAAAAUAAGGUAGCAGAAGGCACUGGGUACA [JR_SSNG3_Sub040] |  |  | 0.0278 | 0.0234 | 
UUACGUCCCGUUUACAUGAGGAUCACCCAUGUCGAAAGACAUGAGGAUAUGCUACCUAGUUGGUAGCAGAAGGCGUGGACGUCG [salish99_SSNG3_r02_005] |  |  | 0.0871 | 0.121 | 

Sequence | apparent KD of MS2 coat protein (MS2 coat protein [1]; input ligand: FMN 200 uM) [µM] | apparent KD of MS2 coat protein (MS2 coat protein [1]; input ligand: none) [µM] | apparent KD of MS2 coat protein (MS2 coat protein [3]; input ligand: FMN 200 uM) [µM] | apparent KD of MS2 coat protein (MS2 coat protein [3]; input ligand: none) [µM] | further results
AGAACAUGAGGAUCACCCAUGUGAAGGUCGGCGUAUAAGGGUGAGGAUAUGCUUAAAAUAAGGAAGCAGAAGGUACUUGGUGCG [SameState #80 NG3] |  |  | 0.0753 | 0.165 | 
UCGACGAAAGUCGAACGAUGUAGCAGAAGGACAUGAGGAUCACCCAUGUCAGCUGUAACAGCCAUGUAGGAUAUGCUACAUCGG [salish99_ISLExNG3_007 #endbits investigation] (puzzle (switch architecture): Inverted Small Loop Exclusion NG 3) |  | 0.00443 |  |  | 
AAAACAUGAGGAUCACCCAUGUAUUGAACGGUUAAUAAAAGUGAGGAUAUACAAAAUUUUAUAUAGUAGAAGGCACUGGGUACA [JR_SSNG3_Sub009] |  |  | 0.0208 | 0.0212 | 
UUCUGUGCCCAAAGUUAAAGCACAUGAGGAUCACCCAUGUGAAAGGAUAUGUGGCAUGUAAUGUUAUAGAAGGUUCACAAUCAA [Reveention] |  |  |  |  | apparent KD of MS2 coat protein (MS2 coat protein [2]; input ligand: FMN 200 uM): 0.0228 µM; apparent KD of MS2 coat protein (MS2 coat protein [2]; input ligand: none): 0.0142 µM
AGGCAGCACUGCUACGUGGCCUCACAUGAGGAUCACCCAUGUAAGGAUAUCGGGUAGCAUUACCACGAGAAGGUACAUAAGAGG [Ceisle] (puzzle (switch architecture): Exclusion NG 3) | 0.0258 | 0.015 |  |  | 
AAAUAACUUGAAGGAUAUGACCCUCGAGGUGACUAAAAGUCACCUCGAGGGUCAGAAGGUCGAGGAUCACCCGACCUAAAUAAA [#SharedSequence SLExNG1: 6-1] (puzzle (switch architecture): Small Loop Exclusion NG 1) | 0.00669 | 0.00714 |  |  | 
GGACUCACUUGAGGAUAUCGAGUGGAUAACACUCGAGAAGGCAGGGAAACCUGAGGAUCACCCAGGUAAGAGUCCAAUAAUAAA [Same State NG1 - A3C, U17G Submission 2D] |  |  | 0.0199 | 0.0421 | 
GGAGACCUCACAGGAUAUGCUGGACUUUGUCCAGCAGAAGGGUGAAAACAUGAGGAUCACCCAUGUAUGGUCUCCAAAUUUAAU [Denovo 57] |  |  | 0.0304 | 0.632 | 
GGUUGUUACGCAGGAUAUUGCCAACAGGCAGUAGGAUAUCCGAAAGGAGAAGGAUCGCCAACAGGCGAGAAGGGCGGGUUAACC [pwkr exNG2 2xF7 2FMN.10.5] |  |  |  |  | apparent KD of MS2 coat protein (MS2 coat protein [2]; input ligand: FMN 200 uM): 0.121 µM; apparent KD of MS2 coat protein (MS2 coat protein [2]; input ligand: none): 1.24 µM
AGGAGAAAUGUAGGAUAUGGGCGGGCGUACGGGCAAAGCGCGUACGCCCGCCCAGAAGGACAUGAGGAUCACCCAUGUUUCCCU [#Lowering the energy 1] (puzzle (switch architecture): Small Loop Exclusion NG 1) | 0.016 | 0.0145 |  |  | 
AAAACAUGAGGAUCACCCAUGUAAAGAUCGGUUAAUAGAAGUGAGGAUAUACAAAAUUUUAGGUAGUAGAAGGCACAGGGUACA [JR_SSNG3_Sub046] |  |  | 0.0315 | 0.033 | 
AUUACAUGAGGAUCACCCAUGUACAGAACGUUUCAUUAAAGUGAGGAUAUACGAAAUUUAAAAGCGUAGAAGGCACUGGGUACA [SameState #43 NG3] |  |  | 0.0242 | 0.0278 | 
UAUAAUCUUUAAGGAUAUGACUCCGUUUCGGAGUCAGAAGGUGAGGAUCACCCACCUAGCUCAGGGUCGUUUGACCCUGAGCAU [#AddUracilToBrourdLoops 9 - Jieux - Exclusion NG1] (puzzle (switch architecture): Exclusion NG 1) | 0.0106 | 0.00887 |  |  | 
GCAUACAUUCGAGGAUAUCGGUGAACAAAUUAGCGAGAAGGCGAUAUAAUUUUUAAACUUAUUGACAUGAGGAUCACCCAUGUA [JR_SSNG1_Sub011] |  |  | 0.0205 | 0.0248 | 
ACCAUUUACUAAUCCUCUAUACAUGAGGAUCACCCAUGUUCUGAGGAUAUCAUCGUUCGCCGCGUUGAGAAGGCAGAGCAUUCG [AriestionMod 1 - Jieux - Exclusion NG 3] |  |  |  |  | apparent KD of MS2 coat protein (MS2 coat protein [2]; input ligand: FMN 200 uM): 0.0408 µM; apparent KD of MS2 coat protein (MS2 coat protein [2]; input ligand: none): 0.0268 µM
CCUGCACCUCAAGGAUAUCCAGUCGAAACGACUGGAGAAGGUGAGGAUCACCCACCUAGCCUGACGAAAGUCAGGCAUGCAGGA [#SharedSequence - ExNG1-1] (puzzle (switch architecture): Exclusion NG 1) | 0.0328 |  |  |  | 
GGACGUCACAUAAACAUGAGGAUCACCCAUGUCAAAAGACAUGAGGAUAUGGAUGCGAAACGCAUCCAGAAGGCAUGGACGUCC [EliMod 4 - Jieux - Same State NG 3] |  |  | 0.0573 | 0.728 | 
